Target: FlagV1P
Experiment: fluorescence microscopy with FITC-labeled pentabody on whole bacteria

B1: C. jejuni strain 11168 flagella (other)
chain 1: GFRINTNVAALNAKANADLNSKSLDASLSRLSSGLRINSAADDASGMAIADSLRSQANTLGQAISNGNDALGILQTADKAMDEQLKILDTIKTKATQAAQDGQSLKTRTMLQADINRLMEELDNIANTTSFNGKQLLSGNFINQEFQIGASSNQTVKATIGATQSSKIGLTRFETGGRISTSGEVQFTLKNYNGIDDFQFQKVVISTSVGTGLGALADEINKNADKTGVRATFTVETRGIAAVRAGATSDTFAINGVKIGKVDYKDGDANGALVAAINSVKDTTGVEASIDANGQLLLTSREGRGIKIDGNIGGGAFINADMKENYGRLSLVKNDGKDILISGSNLSSAGFGATQFISQASVSLRESKGQIDANIADAMGFGSANKGVVLGGYSSVSAYMSSAGSGFSSGSGYSVGSGKNYSTGFANAIAISAASQLSTVYNVSAGSGFSSGSTLSQFATMKTTAFGVKDETAGVTTLKGAMAVMDIAETAITNLDQIRADIGSVQNQVTSTINNITVTQVNVKAAESQIRDVDFAAESANYSKANILAQSGSYAMAQANSVQQNVLRLLQ
chain 2: GFRINTNIGALNAHANSVVNARELDKSLSRLSSGLRINSAADDASGMAIADSLRSQAATLGQAINNGNDAIGILQTADKAMDEQLKILDTIKTKATQAAQDGQSLKTRTMLQADINRLMEELDNIANTTSFNGKQLLSGNFINQEFQIGASSNQTIKATIGATQSSKIGLTRFETGGRISSSGEVQFTLKNYNGIDDFQFQKVVISTSVGTGLGALAEEINKSADKTGVRATFTVETRGIAAVRAGTTSDTFAINGVTIGQVAYEDGDGNGALVAAINSVKDTTGVEASIDANGQLLLTSREGRGIKIDGNIGGGAFINADMKENYGRLSLVKNDGKDILISGSNLSSAGFGATQFISQASVSLRESKGRFDANIADAMGFGSANKGVVLGGYSSVSAYMSSAGSGFSSGSGYSVGSGKNYSTGFANAIAISAASQLSTVYNVSAGSGFSSGSTLSQFATMKTTAFGVKDETAGVTTLKGAMAVMDIAETATTNLDQIRADIGSVQNQLQVTINNITVTQVNVKAAESTIRDVDFAAESANFSKYNILAQSGSYAMSQANAVQQNVLKLLQ
- binding result: no binding
